These sequences were tested on Escherichia coli TOP10 (assay: shrunken log2 fold change of peptide-encoding DNA abundance (4.5 h post-induction vs induction); higher = less antimicrobial activity (less host growth inhibition)). Conditions: time post-induction: 4.5 h; library: site-saturation at positions 5, 18, 19, 20.
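Also: peptides expressed intracellularly from a pBAD plasmid library in pooled LB shake-flask culture, induced with 0.3% L-arabinose, DNA abundance read by NGS, three biological replicates, DESeq2 with apeglm shrinkage.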

Row | Sequence | shrunken log2 fold change
1 | RRIRHRPPRLPRPRPRPRWFPRP | 0.161
2 | RRIRHRPPRLPRPRPRPRYGPRP | -0.629
3 | RRIRHRPPRLPRPRPRPSCYPRP | -1.1
4 | RRIRHRPPRLPRPRPRPSDFPRP | 0.00333
5 | RRIRHRPPRLPRPRPRPSEKPRP | -0.144
6 | RRIRHRPPRLPRPRPRPSERPRP | -0.0252
7 | RRIRHRPPRLPRPRPRPSFEPRP | -0.358
8 | RRIRHRPPRLPRPRPRPSFWPRP | 0.00023
9 | RRIRHRPPRLPRPRPRPSGFPRP | 0.112
10 | RRIRHRPPRLPRPRPRPSGNPRP | -0.199
11 | RRIRHRPPRLPRPRPRPSHQPRP | -0.178
12 | RRIRHRPPRLPRPRPRPSHSPRP | -0.577
13 | RRIRHRPPRLPRPRPRPSIHPRP | -0.924
14 | RRIRHRPPRLPRPRPRPSKGPRP | -0.149
15 | RRIRHRPPRLPRPRPRPSKQPRP | -0.166
16 | RRIRHRPPRLPRPRPRPSLFPRP | -0.625
17 | RRIRHRPPRLPRPRPRPSMAPRP | 0.231
18 | RRIRHRPPRLPRPRPRPSMYPRP | -0.0507
19 | RRIRHRPPRLPRPRPRPSNAPRP | -0.38
20 | RRIRHRPPRLPRPRPRPSQAPRP | -0.142
21 | RRIRHRPPRLPRPRPRPSQHPRP | -0.411
22 | RRIRHRPPRLPRPRPRPSQIPRP | -0.0599
23 | RRIRHRPPRLPRPRPRPSRDPRP | 0.234
24 | RRIRHRPPRLPRPRPRPSRFPRP | 0.0223
25 | RRIRHRPPRLPRPRPRPSSSPRP | -0.258

Row | Sequence | shrunken log2 fold change
26 | RRIRHRPPRLPRPRPRPSSWPRP | -0.0281
27 | RRIRHRPPRLPRPRPRPSTKPRP | -0.383
28 | RRIRHRPPRLPRPRPRPSTQPRP | -0.0473
29 | RRIRHRPPRLPRPRPRPSTWPRP | -0.674
30 | RRIRHRPPRLPRPRPRPSVNPRP | -0.0443
31 | RRIRHRPPRLPRPRPRPSVVPRP | 0.118
32 | RRIRHRPPRLPRPRPRPSWYPRP | -0.152
33 | RRIRHRPPRLPRPRPRPSYPPRP | -0.868
34 | RRIRHRPPRLPRPRPRPSYVPRP | -1.15
35 | RRIRHRPPRLPRPRPRPTAKPRP | 0.0616
36 | RRIRHRPPRLPRPRPRPTCEPRP | 0.012
37 | RRIRHRPPRLPRPRPRPTCLPRP | -0.0796
38 | RRIRHRPPRLPRPRPRPTDNPRP | -0.177
39 | RRIRHRPPRLPRPRPRPTDPPRP | 0.138
40 | RRIRHRPPRLPRPRPRPTDWPRP | 0.223
41 | RRIRHRPPRLPRPRPRPTEFPRP | -0.153
42 | RRIRHRPPRLPRPRPRPTENPRP | -0.418
43 | RRIRHRPPRLPRPRPRPTFDPRP | 0.0575
44 | RRIRHRPPRLPRPRPRPTFIPRP | -0.114
45 | RRIRHRPPRLPRPRPRPTFNPRP | -0.612
46 | RRIRHRPPRLPRPRPRPTGLPRP | -0.515
47 | RRIRHRPPRLPRPRPRPTGTPRP | -0.0618
48 | RRIRHRPPRLPRPRPRPTIAPRP | 0.451
49 | RRIRHRPPRLPRPRPRPTKCPRP | -0.0314
50 | RRIRHRPPRLPRPRPRPTKVPRP | -0.0672

Row | Sequence | shrunken log2 fold change
51 | RRIRHRPPRLPRPRPRPTMCPRP | -0.00396
52 | RRIRHRPPRLPRPRPRPTMRPRP | 0.402
53 | RRIRHRPPRLPRPRPRPTNDPRP | -0.311
54 | RRIRHRPPRLPRPRPRPTNPPRP | -0.363
55 | RRIRHRPPRLPRPRPRPTNVPRP | -0.558
56 | RRIRHRPPRLPRPRPRPTNYPRP | -0.2
57 | RRIRHRPPRLPRPRPRPTPKPRP | -0.0377
58 | RRIRHRPPRLPRPRPRPTQMPRP | 0.222
59 | RRIRHRPPRLPRPRPRPTVCPRP | 0.196
60 | RRIRHRPPRLPRPRPRPTYPPRP | 0.0921
61 | RRIRHRPPRLPRPRPRPVAGPRP | 0.26
62 | RRIRHRPPRLPRPRPRPVAQPRP | 0.0207
63 | RRIRHRPPRLPRPRPRPVCPPRP | -0.0334
64 | RRIRHRPPRLPRPRPRPVDEPRP | 0.184
65 | RRIRHRPPRLPRPRPRPVDRPRP | -0.0926
66 | RRIRHRPPRLPRPRPRPVEYPRP | -0.0122
67 | RRIRHRPPRLPRPRPRPVHRPRP | -0.143
68 | RRIRHRPPRLPRPRPRPVIVPRP | -0.204
69 | RRIRHRPPRLPRPRPRPVKAPRP | -0.0779
70 | RRIRHRPPRLPRPRPRPVKHPRP | 0.0596
71 | RRIRHRPPRLPRPRPRPVLVPRP | -0.0156
72 | RRIRHRPPRLPRPRPRPVMQPRP | -0.01
73 | RRIRHRPPRLPRPRPRPVNAPRP | -0.0381
74 | RRIRHRPPRLPRPRPRPVNGPRP | -0.0224
75 | RRIRHRPPRLPRPRPRPVNLPRP | -0.0241

Row | Sequence | shrunken log2 fold change
76 | RRIRHRPPRLPRPRPRPVNWPRP | 0.18
77 | RRIRHRPPRLPRPRPRPVQTPRP | -0.011
78 | RRIRHRPPRLPRPRPRPVRAPRP | 0.571
79 | RRIRHRPPRLPRPRPRPVREPRP | 0.522
80 | RRIRHRPPRLPRPRPRPVRQPRP | 0.0261
81 | RRIRHRPPRLPRPRPRPVRVPRP | 0.0942
82 | RRIRHRPPRLPRPRPRPVSCPRP | 0.011
83 | RRIRHRPPRLPRPRPRPVSLPRP | -0.0931
84 | RRIRHRPPRLPRPRPRPVVAPRP | -0.233
85 | RRIRHRPPRLPRPRPRPVVQPRP | 0.13
86 | RRIRHRPPRLPRPRPRPVYAPRP | -0.375
87 | RRIRHRPPRLPRPRPRPVYNPRP | -0.303
88 | RRIRHRPPRLPRPRPRPVYVPRP | -0.158
89 | RRIRHRPPRLPRPRPRPVYYPRP | -1.02
90 | RRIRHRPPRLPRPRPRPWACPRP | -0.051
91 | RRIRHRPPRLPRPRPRPWDTPRP | -0.164
92 | RRIRHRPPRLPRPRPRPWFAPRP | -0.217
93 | RRIRHRPPRLPRPRPRPWGDPRP | 0.0821
94 | RRIRHRPPRLPRPRPRPWIRPRP | -0.0813
95 | RRIRHRPPRLPRPRPRPWLEPRP | -0.0848
96 | RRIRHRPPRLPRPRPRPWLFPRP | -0.0716
97 | RRIRHRPPRLPRPRPRPWLQPRP | 0.0358
98 | RRIRHRPPRLPRPRPRPWMHPRP | 0.0155
99 | RRIRHRPPRLPRPRPRPWNNPRP | -0.453
100 | RRIRHRPPRLPRPRPRPWPTPRP | 0.103

Row | Sequence | shrunken log2 fold change
101 | RRIRHRPPRLPRPRPRPWRNPRP | 0.00611
102 | RRIRHRPPRLPRPRPRPWSCPRP | -0.0195
103 | RRIRHRPPRLPRPRPRPWTRPRP | -0.0761
104 | RRIRHRPPRLPRPRPRPWTWPRP | -0.00897
105 | RRIRHRPPRLPRPRPRPWVTPRP | 0.0283
106 | RRIRHRPPRLPRPRPRPWWKPRP | -0.0848
107 | RRIRHRPPRLPRPRPRPWYRPRP | -0.0954
108 | RRIRHRPPRLPRPRPRPYAAPRP | -0.519
109 | RRIRHRPPRLPRPRPRPYCSPRP | -0.337
110 | RRIRHRPPRLPRPRPRPYFIPRP | -1.14
111 | RRIRHRPPRLPRPRPRPYGNPRP | -0.298
112 | RRIRHRPPRLPRPRPRPYKFPRP | -0.0481
113 | RRIRHRPPRLPRPRPRPYKIPRP | -0.373
114 | RRIRHRPPRLPRPRPRPYKRPRP | -0.051
115 | RRIRHRPPRLPRPRPRPYKWPRP | -0.0842
116 | RRIRHRPPRLPRPRPRPYMCPRP | -0.536
117 | RRIRHRPPRLPRPRPRPYMDPRP | -0.356
118 | RRIRHRPPRLPRPRPRPYNCPRP | -0.00726
119 | RRIRHRPPRLPRPRPRPYPMPRP | -0.2
120 | RRIRHRPPRLPRPRPRPYQHPRP | -0.0148
121 | RRIRHRPPRLPRPRPRPYQRPRP | 0.0916
122 | RRIRHRPPRLPRPRPRPYVAPRP | -0.912
123 | RRIRHRPPRLPRPRPRPYWDPRP | -0.849
124 | RRIRHRPPRLPRPRPRPYYMPRP | -0.636
125 | RRIRHRPPRLPRPRPRPYYYPRP | -1.31

Row | Sequence | shrunken log2 fold change
126 | RRIRIRPPRLPRPRPRPAAEPRP | 0.197
127 | RRIRIRPPRLPRPRPRPAAIPRP | -0.199
128 | RRIRIRPPRLPRPRPRPAAPPRP | 0.47
129 | RRIRIRPPRLPRPRPRPACKPRP | -0.659
130 | RRIRIRPPRLPRPRPRPACSPRP | -0.129
131 | RRIRIRPPRLPRPRPRPADVPRP | -0.134
132 | RRIRIRPPRLPRPRPRPAECPRP | -0.311
133 | RRIRIRPPRLPRPRPRPAESPRP | 0.0486
134 | RRIRIRPPRLPRPRPRPAFEPRP | -0.117
135 | RRIRIRPPRLPRPRPRPAFFPRP | 0.0559
136 | RRIRIRPPRLPRPRPRPAFHPRP | -0.2
137 | RRIRIRPPRLPRPRPRPAGKPRP | 0.0304
138 | RRIRIRPPRLPRPRPRPAGMPRP | -0.0321
139 | RRIRIRPPRLPRPRPRPAHGPRP | 0.188
140 | RRIRIRPPRLPRPRPRPAHLPRP | 0.117
141 | RRIRIRPPRLPRPRPRPAHTPRP | -0.588
142 | RRIRIRPPRLPRPRPRPAITPRP | -0.706
143 | RRIRIRPPRLPRPRPRPAKCPRP | -0.126
144 | RRIRIRPPRLPRPRPRPAKDPRP | -0.268
145 | RRIRIRPPRLPRPRPRPAKEPRP | -0.374
146 | RRIRIRPPRLPRPRPRPAKHPRP | -0.476
147 | RRIRIRPPRLPRPRPRPAKRPRP | 0.0281
148 | RRIRIRPPRLPRPRPRPALDPRP | 1.45
149 | RRIRIRPPRLPRPRPRPAMFPRP | -0.45
150 | RRIRIRPPRLPRPRPRPAMHPRP | -0.221
